Ends that are not written are not given here.
Key:
Assay in all cases: PepSpot peptide array
peptide 96 = molecular target: T1, peptide 96 (human)
T1 peptide: Ac-WSAPSDPLELVVT
Procedure: (§1) The peptides were synthesized on a cellulose membrane in a stepwise manner resulting in a defined arrangement (peptide array) and are covalently bound to the cellulose membrane. Binding assays were performed directly on the peptide array. In general an antigen peptide array is incubated with blocking buffer for several hours to reduce non-specific binding of proteins or antibodies. It follows the incubation with a primary (antigen peptide-binding) antibody in blocking buffer and an incubation with a horseradish peroxidase (HRP)-labelled secondary antibody, which binds selectively the primary antibody. Alternatively a HRP-labelled primary antibody in blocking buffer can be used.
(§2) A short T(Tween)-TBS-buffer washing directly after the incubation of the antigen peptide array with the secondary protein or antibody or the HRP-labelled primary antibody followed by the first chemiluminescence experiment is made to get an first overview which antigen peptides do bind the primary antibody. Several buffer washing steps follow (T-TBS- and TBS-buffer) to reduce false positive binding (unspecific antibody binding to the cellulose membrane itself). After these washing steps the final chemiluminescence analysis is performed. The data were analysed with an imaging system showing the signal intensity (Light units, LU) as single measurements for each peptide. In order to evaluate non-specific binding of secondary antibodies, incubations using the secondary antibody have to be performed in the absence of the primary antibody as control incubation.

peptide 24 = molecular target: T2, peptide 24 (human)
T2 peptide: Ac-RCQGPPGVDLYRL
Procedure: as §1, §2

peptide 67 = molecular target: T3, peptide 67 (human)
T3 construct: also called QCQTRYGFDQFAL
T3 peptide: Ac-QCQTRYGFDQFAL
Procedure: as §1, §2

peptide 115 = molecular target: T4, peptide 115 (human)
T4 peptide: Ac-ELTVSFTNKVFTT
Procedure: as §1, §2

peptide 17 = molecular target: T5, peptide 17 (human)
T5 peptide: Ac-LPSSLVPLEKPVT
Procedure: as §1, §2

peptide 69 = molecular target: T6, peptide 69 (human)
T6 peptide: Ac-RYGFDQFALYKEG
Procedure: as §1, §2

peptide 128 = molecular target: T7, peptide 128 (human)
T7 peptide: Ac-DSPAGPARQYYTK
Procedure: as §1, §2

peptide 92 = molecular target: T8, peptide 92 (human)
T8 peptide: Ac-FSSRDPYLWSAPS
Procedure: as §1, §2

peptide 131 = molecular target: T9, peptide 131 (human)
T9 peptide: Ac-ARQYYTKGNGGRE
Procedure: as §1, §2

peptide 60 = molecular target: T10, peptide 60 (human)
T10 peptide: Ac-QPGPAVSSGGDVT
Procedure: as §1, §2

peptide 32 = molecular target: T11, peptide 32 (human)
T11 peptide: Ac-SSSRYQDQAVLFI
Procedure: as §1, §2

peptide 112 = molecular target: T12, peptide 112 (human)
T12 peptide: Ac-FSEATAELTVSFT
Procedure: as §1, §2

peptide 8 = molecular target: T13, peptide 8 (human)
T13 peptide: Ac-LGRVPAQSGPLPK
Procedure: as §1, §2

peptide 26 = molecular target: T14, peptide 26 (human)
T14 peptide: Ac-PPGVDLYRLEKLS
Procedure: as §1, §2

peptide 5 = molecular target: T15, peptide 5 (human, cysteine pairing not given here)
T15 peptide: Ac-FCLGLCLGRVPAQ
Procedure: as §1, §2

peptide 19 = molecular target: T16, peptide 19 (human)
T16 peptide: Ac-LVPLEKPVTLRCQ
Procedure: as §1, §2

peptide 38 = molecular target: T17, peptide 38 (human)
T17 peptide: Ac-IPAMKRSLAGRYR
Procedure: as §1, §2

peptide 3 = molecular target: T18, peptide 3 (human, cysteine pairing not given here)
T18 peptide: Ac-PTALFCLGLCLGR
Procedure: as §1, §2

peptide 90 = molecular target: T19, peptide 90 (human)
T19 peptide: Ac-RCYSFSSRDPYLW
Procedure: as §1, §2

peptide 4 = molecular target: T20, peptide 4 (human, cysteine pairing not given here)
T20 peptide: Ac-ALFCLGLCLGRVP
Procedure: as §1, §2

peptide 81 = molecular target: T21, peptide 81 (human)
T21 peptide: Ac-YRASFPIITVTAA
Procedure: as §1, §2

peptide 52 = molecular target: T22, peptide 52 (human)
T22 peptide: Ac-LELVATGVFAKPS
Procedure: as §1, §2

peptide 120 = molecular target: T23, peptide 120 (human)
T23 peptide: Ac-FTTETSRSITTSP
Procedure: as §1, §2

peptide 70 = molecular target: T24, peptide 70 (human)
T24 peptide: Ac-GFDQFALYKEGDP
Procedure: as §1, §2

peptide 80 = molecular target: T25, peptide 80 (human)
T25 peptide: Ac-RWYRASFPIITVT
Procedure: as §1, §2

peptide 53 = molecular target: T26, peptide 53 (human)
T26 peptide: Ac-LVATGVFAKPSLS
Procedure: as §1, §2

peptide 108 = molecular target: T27, peptide 108 (human)
T27 peptide: Ac-EPPSSVAEFSEAT
Procedure: as §1, §2

peptide 35 = molecular target: T28, peptide 35 (human)
T28 peptide: Ac-DQAVLFIPAMKRS
Procedure: as §1, §2

peptide 124 = molecular target: T29, peptide 124 (human)
T29 peptide: Ac-ITTSPKESDSPAG
Procedure: as §1, §2

peptide 73 = molecular target: T30, peptide 73 (human)
T30 peptide: Ac-LYKEGDPAPYKNP
Procedure: as §1, §2

peptide 63 = molecular target: T31, peptide 63 (human)
T31 peptide: Ac-SSGGDVTLQCQTR
Procedure: as §1, §2

peptide 113 = molecular target: T32, peptide 113 (human)
T32 peptide: Ac-EATAELTVSFTNK
Procedure: as §1, §2

peptide 88 = molecular target: T33, peptide 88 (human)
T33 peptide: Ac-SGTYRCYSFSSRD
Procedure: as §1, §2

peptide 84 = molecular target: T34, peptide 84 (human)
T34 peptide: Ac-IITVTAAHSGTYR
Procedure: as §1, §2

peptide 27 = molecular target: T35, peptide 27 (human)
T35 peptide: Ac-GVDLYRLEKLSSS
Procedure: as §1, §2

peptide 18 = molecular target: T36, peptide 18 (human)
T36 peptide: Ac-SSLVPLEKPVTLR
Procedure: as §1, §2

peptide 11 = molecular target: T37, peptide 11 (human)
T37 construct: also called QSGPLPKPSLQAL
T37 peptide: Ac-QSGPLPKPSLQAL
Procedure: as §1, §2

peptide 13 = molecular target: T38, peptide 13 (human)
T38 peptide: Ac-LPKPSLQALPSSL
Procedure: as §1, §2

peptide 129 = molecular target: T39, peptide 129 (human)
T39 peptide: Ac-PAGPARQYYTKGN
Procedure: as §1, §2

peptide 33 = molecular target: T40, peptide 33 (human)
T40 peptide: Ac-SRYQDQAVLFIPA
Procedure: as §1, §2

peptide 2 = molecular target: T41, peptide 2 (human, cysteine pairing not given here)
T41 peptide: Ac-PSPTALFCLGLCL
Procedure: as §1, §2

B1: monoclonal antibody hGP 5C4 (antibody, V domains shown)
VH: EVKLQESGGGLVQPGRSLKLSCTASGFTFSDYFMSWVRQAPTRGLEWVASISSGGASAYWRDSVKGRFTISRDNAKSALYLQMDSLRSEDTATYFCARGELDFDYWGQGVMVAVSS
VL: ADPNSTLLSASVGDRVTLNCTASQNVYKNLAWYQQKLGEAPRLLLYSANSQTGIPSRFSGSGSGPDFTLTISSLQPEDVASYFCQQYYSGNTFGAGTKLELKR
notes: Rat hybridoma antibody (Lou/C rats), heavy chain gamma 2a, light chain kappa; also called ab 5C4; anti-GPVI mAb 5C4
LU (Light Units) (peptide 96): 210 LU
LU (Light Units) (peptide 24): 28 LU
LU (Light Units) (peptide 67): 62 LU
LU (Light Units) (peptide 115): 143 LU
LU (Light Units) (peptide 17): 160 LU
LU (Light Units) (peptide 69): 78 LU
LU (Light Units) (peptide 128): 66 LU
LU (Light Units) (peptide 92): 110 LU
LU (Light Units) (peptide 131): 289 LU
LU (Light Units) (peptide 60): 88 LU
LU (Light Units) (peptide 32): 319 LU
LU (Light Units) (peptide 112): 100 LU
LU (Light Units) (peptide 8): 794 LU
LU (Light Units) (peptide 26): 101 LU
LU (Light Units) (peptide 5): 26 LU
LU (Light Units) (peptide 19): 157 LU
LU (Light Units) (peptide 38): 1030 LU
LU (Light Units) (peptide 3): 74 LU
LU (Light Units) (peptide 90): 65 LU
LU (Light Units) (peptide 4): 5 LU
LU (Light Units) (peptide 81): 141 LU
LU (Light Units) (peptide 52): 148 LU
LU (Light Units) (peptide 120): 250 LU
LU (Light Units) (peptide 70): 3 LU
LU (Light Units) (peptide 80): 184 LU
LU (Light Units) (peptide 53): 359 LU
LU (Light Units) (peptide 108): 12 LU
LU (Light Units) (peptide 35): 186 LU
LU (Light Units) (peptide 124): 66 LU
LU (Light Units) (peptide 73): 33 LU
LU (Light Units) (peptide 63): 2 LU
LU (Light Units) (peptide 113): 135 LU
LU (Light Units) (peptide 88): 64 LU
LU (Light Units) (peptide 84): 87 LU
LU (Light Units) (peptide 27): 100 LU
LU (Light Units) (peptide 18): 219 LU
LU (Light Units) (peptide 11): 3540 LU
signal to noise ratio (peptide 11): ~20 ratio
LU (Light Units) (peptide 13): 2050 LU
LU (Light Units) (peptide 129): 139 LU
LU (Light Units) (peptide 33): 259 LU
LU (Light Units) (peptide 2): 79 LU
